Source: the MegaScale stability set (Tsuboyama et al. 2023)

B1: EHEE_rd4_0726 (parent)
chain: DIEITTNGEEDAKRVIKELQKRNLEYHIEVHGNQWVIKVR
B2: EHEE_rd2_0191 (parent)
chain: TTEYTFTDDEEARRAIEELKKRGLTFRYEKHGTTWRVRVD

Variants of: B1
Experiment: folding stability dG (cDNA display proteolysis); higher = more stable
Conditions: PBS, room temperature

Folding stability dG [kcal/mol] of substitutions, site by site:
I4: M 1.23 | R 0.4 | H 0.697 | P 0.107 | F 2.12 | S 0.002 | N -0.395 | D -0.582 | K 0.22 | G -0.292 | V 1.57 | W 1.99 | A 0.165 | Q 0.094 | E 0.017 | T 0.528 | L 1.66 | Y 2.15
D11: Q 2.63 | K 1.78 | S 2.3 | T 2.05 | H 2.52 | M 2.59 | A 2.73 | G 1.92 | Y 2.21 | R 1.99 | N 2.28 | I 2.03 | E 2.95 | L 2.12 | P 1.49 | F 2.31 | W 2.62 | V 1.93
D1: Y 3.38 | A 2.34 | W 4.08 | P 2.29 | E 2.59 | T 2.63 | M 2.87 | F 3.31 | H 2.48 | Q 2.36 | I 2.87 | S 2.39 | R 2.24 | K 1.97 | C 2.75 | G 2.43 | N 2.37 | V 2.77 | L 2.76
I2: L 2.52 | M 2.43 | H 2.06 | C 2.82 | W 3.69 | R 1.97 | S 1.65 | G 1.4 | K 1.58 | N 1.49 | F 3.22 | Y 3.27 | V 2.15 | A 1.53 | D 1.41 | P 1.06 | Q 1.69 | E 1.54 | T 1.91
G8: K 2.02 | A 1.91 | T 3.07 | C 2.33 | W 1.75 | M 1.69 | Q 1.84 | P 0.219 | E 1.77 | Y 1.92 | R 2.33 | S 3.27 | L 1.83 | H 2.1 | V 1.92 | F 1.97 | N 3.23 | D 2.64 | I 1.95
T5: W 3.48 | F 2.77 | K 2.32 | R 2.92 | G 1.08 | D 1 | V 3.03 | L 2.49 | E 1.66 | P 1.59 | C 2.86 | S 1.96 | I 3.17 | Y 2.91 | A 1.84 | H 2.61 | M 2.39 | N 1.75 | Q 2
E10: I 2.01 | L 2.15 | F 2.05 | G 1.77 | H 2.02 | C 2.43 | N 1.93 | M 2.05 | W 2.21 | A 2.4 | T 1.93 | K 2.14 | D 2.25 | Y 2.07 | V 2.02 | R 2.18 | P 1.52 | Q 2.16 | S 1.95
N7: G 1.78 | W 3.1 | M 2.54 | Y 3.03 | A 2.19 | K 2.1 | F 2.75 | C 2.87 | R 2.25 | D 2.4 | P 1.36 | V 2.29 | S 2.26 | Q 2.4 | L 2.47 | I 2.43 | E 2.41 | H 2.42 | T 2.34
T6: Y 1.59 | F 2.32 | M 2.38 | N 0.494 | R 1.53 | G 2.65 | L 2.84 | I 3.08 | Q 0.841 | H 0.768 | S 1.47 | W 1.04 | V 3.55 | E 0.908 | A 2.62 | K 1.22 | D 0.026 | P 1.51
A12: H 1.01 | K 1.06 | E -0.056 | L 2.53 | F 2.45 | G 1.43 | I 1.49
E9: H 1.92 | I 2.48 | R 2.19 | F 2.52 | D 1.5 | T 1.52 | P 2.46 | Y 2.78 | M 2.12 | N 1.36 | V 2.15 | G 1.76 | W 3.31 | K 2.06 | L 2.36 | S 1.86 | A 2.26 | Q 1.92
E3: D 1.78 | I 3.45 | G 1.25 | A 2.16 | K 2.18 | H 2.31 | Y 3.11 | W 3.35 | M 2.74 | P 0.973 | F 2.93 | S 2.5 | R 2.34 | N 1.87 | L 2.76 | T 3.12 | Q 2.37 | V 3.33

Variants of: B2
Experiment: as above
Conditions: PBS, room temperature

Folding stability dG [kcal/mol], by site and new letter:
T33: P 1.79 | I 1.84 | E 2.14 | Y 1.7 | R 1.8 | D 2.54 | S 2.19 | W 1.13 | N 2.55 | L 1.91 | G 2.46 | A 1.93 | H 2.01 | F 1.9 | M 1.9 | K 2.01 | V 1.71 | Q 2.03
W35: I 2.15 | A -0.575 | L 0.943 | F 0.889 | R -0.576 | T 1.49 | Y 1.21 | C 1.77 | N -0.839 | S 0.309 | H 1.59 | M 0.84 | V 1.44
R36: T 2.57 | L 2.71 | E 1.34 | K 2.35 | S 1.67 | H 2.44 | D 0.362 | W 2.7 | I 3.33 | C 2.39 | V 3.08 | A 1.19 | F 3.02 | N 1.43 | Q 1.54 | G -0.707 | Y 3.28 | M 2.08
G32: Y 0.194
V39: A 0.227 | H -0.386 | T 0.562 | M 1.02 | E -0.709 | W 0.937 | Q -0.645 | P -0.946 | F 1.24 | Y 0.601 | I 2.02 | L 1.6 | S -0.316
D40: V 2.54 | F 3.35 | G 2.1 | P 1.86 | R 1.95 | L 2.78 | N 2.04 | M 2.68 | E 2.31 | Y 3.29 | C 3.04 | W 3.19 | K 1.9 | T 2.38 | S 2.17 | H 2.19 | A 2.04 | I 2.83 | Q 2.19
R38: A 1.89 | H 2.28 | Q 2.47 | I 3.6 | T 2.95 | K 2.06 | G 0.594 | V 3.23 | L 2.95 | M 2.81 | N 1.71 | E 2.35 | D 1.11 | W 4.04 | Y 3.62 | S 2.49 | F 3.61
T34: R 1.54 | A 1.48 | Q 1.78 | F 2.15 | E 2.07 | N 1.48 | H 1.74 | I 2.48 | V 2.42 | Y 2.05 | C 2.51 | M 2.08 | S 1.53 | L 2.33 | D 1.03 | K 1.48 | W 1.75 | G 1.56
V37: I 2.67 | M 0.361 | C 0.419 | L 1.76 | F 1.88 | P -0.51
